Measured values reported in the DeepSol protein solubility set.

Test: soluble on expression in E. coli; label from the status in PepcDB or PDB records

| Sequence | soluble on expression in E. coli |
| --- | --- |
| MAHHHHHHMSTYVPKPSRDNVYRFFFTEGVIACKKDRMGTWTGTLGGNTFTVPCIQVMQLMRSLKSRNLIKEQYAWRHYYWTLNDEGIAYMRSYLHLAPSAMPNTQKPSSVNFEKVTEGRGRGRGRGGRGRGEGRGRGRGEGRGRGRGRGFGGERMNYRAAAATSDGEAAPAPAAE | soluble |
| MGSDKIHHHHHHKDDDNVETGAFDPSKPVAISDFTPKEGGAYQKLLIYGENFGTDVSKVKVKIGGKDAIVINVKSTYVYCFVPSGAFSGEIEITVGEGENAVTTTASTTFSYEKKMVVGTLCGYRNNRDDQGWRDGPFDGPEGVKCCGFSDNGRLAFDPLNKDHLYICYDGHKAIQLIDLKNRMLSSPLNINTIPTNRIRSIAFNKKIEGYADEAEYMIVAIDYDGKGDESPSVYIIKRNADGTFDDRSDIQLIAAYKQCNGATIHPINGELYFNSYEKGQVFRLDLVDYFKTIKNGGSWDPIVKNNPNTFKQLFTIADPSWEFQIFIHPTGKYAYFGVINNHYFMRSDYDEIKKEFITPYNFVGGYKQSGYRDDVGTEARMNNPCQGVFVKNPDYTGEEEYDFYFVDRLNFCVRKVTPEGIVSTYAGRGASTSLADGNQWGTDDGDLREVARFRDVSGLVYDDVKEMFYVHDQVGHTIRTISMEQEENVAGDENIPEDESTVESNE | not soluble |
| MAHHHHHHMHAYSGRMEHRKMVEVKDVPQNMYTYGKEGMSIPISIFKDQADPVIGPEWTYPGIFENKIVAQHWYMEELFDREKSNTFESPWQRQVLDNQVKRRLGKVAWRMSMLNIKTIDIFHKERGASKRPGAGDTKAPATPAGKK | not soluble |
| MGSDKIHHHHHHMTSQYKASRFATPRDMPEQTYRLSNVCLPAPLSMGELETFSAISRQVSPLRKRHTLFEQGEAFRSLYIVRCGSLKQVYRDITREEHVTQFYLPGEVVGLDALSSGFHPGATIALETTSVCEIGPESIEELAHGDRTERGVGGCFLRVMSRAMHQERMMVRLFLNRTSDVRLASFLLALSGRFRQQGYSPFCFRLSMSRSDIGNYLGLAVETVSRLLGRFQHLGLLTAKGREIRIDDLEALAALADGRSRHSIWDTADEAPERLASMSTH | not soluble |
| MGSSHHHHHHSSGRENLYFQGMKVVFLICNPAAGGGRAGKIWNRVEDLLKKHGIDHKFAFTERPGHAMEISKKAFKEGYRRIAAFGGDGTVNEMVNGIFLNGYDLREVVFGWIPFGSGKDWARTIGVPLEIEEAIKMLKDGKEFVQDLGVGEYEKASGEIEKRAFVNVAGLFFDGFVTYRTNLLKRKNRVSYFSRIFSSIIEYDPPTARIQIDEKVWEKRVFSMNVGICKYNGGGMNQLPHAVPDDGLLAVTVINDIGKLRILANLHRVFNGKLLEHPGVEGYQAKKVVVEFQRDEPVEFDGESFWAKKIFFSIIPGVIRVLVKK | soluble |
| MGSDKIHHHHHHMEYQTRQWLEEALFDLLATKKSLHNISIAELSEHAQIARRTFYRYYHSKEQVLTNYLDRLIQDYIIELQTEKLTNFEDLVNLFFQYWSQYTESLKILQEANLLVLILQRYYDKLPAAYTTVMAPWHITNSDQRQISYDSRFIIGGLYSIFDEWLKTDHQTMPVNELVTTALNTIKRMKDS | not soluble |
| MGSDKIHHHHHHMPGICLCFQVHRPVILKRYTFFDIGRHHLYEDQEANRRILNQLADSCYLPANRLLLRLMEKSEGRFRVAFALSGAMIHLCEKYRQDIMEGFRRLADTGCVEFLNEADPHSLAFLFSPREFREQIEAHKKKIQELFGQNPTTFHCTDLIYSNELAGVAEEMGHSAFLAEGGQGLPGFQGPDFVYQPADCARLKLLLRNYHLSADIRLHFSDGSRNGHPFPAGWFAERILHSLENSGGQVVNLFLDYETSGKYLTPDRGNSEFLQALSAEMLGQPDFHFQLPAEIAQRYDPQARLDVTDSASGFDIHRNLTTVAGNAMQQDALRVLYDLEEAVRKRKDADCLAIWRMLQTSDYFNYMCTEGFADRVRRRDSGPYGSPYESYINYMNILEDFSRTLQS | not soluble |
| MSLAAGVLPQNEQPYSTLVNNSECVANMKGNLERPTPKYTKVGERLRHVIPGHMACSMACGGRACKYENPARWSEQEQAIKGVYSSWVTDNILAMARPSSELLEKYHIIDQFLSHGIKTIINLQRPGEHASCGNPLEQESGFTYLPEAFMEAGIYFYNFGWKDYGVASLTTILDMVKVMTFALQEGKVAIHCHAGLGRTGVLIACYLVFATRMTADQAIIFVRAKRPNSIQTRGQLLCVREFTQFLTPLRNIFSCCDPKAHAVTLPQYLIRQRHLLHGYEARLLKHVPKIIHLVCKLLLDLAEEGHHHHHH | not soluble |
| MSLTNFVGSVLEATKEAIRALNPQNSTIYESLMVGAGGDVSLKADLMCEEILSARLRHFGHIHSEESGLIEGESQDIIYLDPLDGSTNLSSLIPYYGTSVALCDPEGRTKAAAVINFCSGETFIKTDAFALHGSIWQPIDTFVPIRPLEHASKIGIFEGSHRNAPWVLGLHQKGLKFRSPGAIALSMAYAHNVSFVLFDGEIREYDTKAGLFLCSDLHIHHDERALLISRDPIIFENLLELISQKGEGHHHHHH | soluble |
| SEKLAASTEPQGPRPVLGRESVQVPDDQDFRSFRSECEAEVGWNLTYSRAGVSVWVQAVEMDRTLHKIKCRMECCDVPAETLYDVLHDIEYRKKWDSNVIETFDIARLTVNADVGYYSWRCPKPLKNRDVITLRSWLPMGADYIIMNYSVKHPKYPPRKDLVRAVSIQTGYLIQSTGPKSCVITYLAQVDPKGSLPKWVVNKSSQFLAPKAMKKMYKACLKYPEWKQKHLPHFKPWLHPEQSPLPSLALSELSVQHADSLENIDESAVAESREERMGGAGGEGSDDDTSLT | soluble |
| SKIYDNKNQLIADLGSERRVNAQANDIPTDLVKAIVSIEDHRFFDHRGIDTIRILGAFLRNLQSNSLQGGSTLTQQLIKLTYFSTSTSDQTISRKAQEAWLAIQLEQKATKQEILTYYINKVYMSNGNYGMQTAAQNYYGKDLNNLSLPQLALLAGMPQAPNQYDPYSHP | not soluble |
| MSERSVSKQDQEKRWYTVLAPEEFDRAELGETLAEEPDQVYDRTIQAALSDVRDGGDNNIKLTFQIDDVGSDSASTQFVQAELTRDYQRSLVRRGSSKVAVTVTVLTTDDYRVRIQPVAYTTKQADQSQQHAIRRTMIDLVEEAGEERTFEALLNSIIEGRLSSAIYDEANTIYPLRRVEVEKATLEAHPEEVHEEEETAVDFSGELEHHHHHH | soluble |
| MTAYLNALGVICALGDSREEVARRLFAGDSSGMVVESGWVPERALPVGAVKGALPAMPPAMRSQHSRNNQLLLAAALQIKDEIGQAIEQYGAGRIGVIIGTSTSGIDEASSSMASWLRDQTFPADYDYRQQELGAPANFLATWLQLSGPAYVISTACTSSARALLSARRALDMGLCDAVLCGGVDSLCKLTLNGFSALEAMSPQLCNPFSLNRNGINIGEAAALFLMTREAGSTHSIALLGAGANCDAHHISAPEPSGRGARDAMLQALSNARLEAAQISYLNLHGTATQLNDAMESLAVQAVFPEGVPCSSTKSLSGHTLGAAGALEIAFCWLSLVPHNTEHALPPQVWDGAADPLLPALHWTVPGARLAAADTRYMMSNSFAFGGNNISLIIGDAP | not soluble |
| MGSDKIHHHHHHMSVVIEFDKVSRQFVRRQNASTIQERFMGLIRGLPPAEAFWAVRDVSFAVEEGQSIGLVGHNGAGKSTILKLMTRVLEPTSGRVTTQGRIAALLELGSGFHPELSGRENVFLYGSLMGFGRKEMQRKLPEIIEFSEIGPFLDTEVKHYSSGMYTRLAFAVATAVDPDILITDEVLAVGDETFQRKCIDRIYGFRRAGKTIVFVSHALDVVRSLCDVAVWLDHGEMKAYGEAGKVVDAYLADVNERERAEFEERLHSEDDDQIRESRMRRGSREVEITRVQLLDAQGRERITFRTHEPLTIRIHYLAHQRIERPVFGVGINHESGPWLTGPNTGFDKYHIPFIEGAGIIDYHIPRLPFLGGRYLVSASATDSTQLYEFDVHDRMYPLVIHSDGLSQRYGMVFCEGNWSWHG | not soluble |
| MFNYSGLNEECGVFGIWNHPEAAQLTYMGLHSLQHRGQEGAGIVVSDQNELKGERGLGLLTEAIKDDQMERLKGYQHAIGHVRYATSGNKGIENIQPFLYHFYDMSVGICHNGNLINAKSLRQNLEKQGAIFHSSSDTEVIMHLIRRSKAPTFEEALKESLRKVKGGFTFAILTKDALYGAVDPNAIRPLVVGKMKDGTYILASETCAIDVLGAEFVQDIHAGEYVVINDKGITVKSYTHHTTTAISAMEYIYFARPDSTIAGKNVHAVRKASGKKLAQESPVNADMVIGVPNSSLSAASGYAEEIGLPYEMGLVKNQYVARTFIQPTQELREQGVRVKLSAVKDIVDGKNIILVDDSIVRGTTIRRIVKMLKDSGANKVHVRIASPEFMFPSFYGIDVSTTAELISASKSPEEIKDYIGADSLAYLSVDGLIESIGLDYDAPYSGLCVESFTGDYPAGLYDYEANYKAHLSHRQKQYISKNKHFFDSEGNLNV | not soluble |
| PEGPEIRRAADNLEAAIKGKPLTDVWFAFPQLKTYQSQLIGQHVTHVETRGKALLTHFSNDLTLYSHNQLYGVWRVVDTGEEPQTTRVLRVKLQTADKTILLYSASDIEMLRPEQLTTHPFLQRVGPDVLDPNLTPEVVKERLLSPRFRNRQFAGLLLDQAFLAGLGNYLRVEILWQVGLTGNHKAKDLNAAQLDALAHALLEIPRFSYATRGQVDENKHHGALFRFKVFHRDGEPCERCGSIIEKTTLSSRPFYWCPGCQH | soluble |
| MIIMGLFDEVVGAFLKGDAGKYQAILSWVEEQGGIQVLLEKLQSGGLGAILSTWLSNQQGNQSVSGEQLESALGTNAVSDLGQKLGVDTSTASSLLAEQLPKIIDALSPQGEVSPQANNDLLSAGMELLKGKLFR | not soluble |
| MAHHHHHHMAVAYVFDGAVLKQMSLEAGHPKFTVLDTPLCSDSAVTCFGKDEFYFINGSVPNVLRHFGGRSGCTEHFLPGPAHCLLVHRQKVYCCGVDCLYVFDPLGEEVETIELGQQIKELTAADHGFVFVNDRHELYAFHFTRGVKIVGTKGPVSKLLGHHNRYAVVLLDNGDVISVNEEAEVRENLFPLKIKERFVALDTGMTLALREDELALHMNGTWLCLDGFKGRELQFLGVPLTPAEDACTICFCDFEDGDGVRLDCGHPFHRDCLAEFSTHAKSFVEKGEHIVFTYAVCPSGCGTHIRHAAAPLSAYMNDLYRAVTKDAEGRLREMENKTLEDLYYYVCCRCEKPYYGGNRWCSRTISGEPCKKPSELICSDCNDDFLCPSHNHDFVLYKCRYCCNPATHLSFGNRYMCDACNKKWEGTEPEPMECPGAEKCPLGGAHPTGGSQPLGCMLCTLFDKCDAKHFFPPQ | not soluble |
| MGLFTTRQLLGYTEQKVKFRALFLELFFRRTVNFHTEEVMLDKITGKTPVAAYVSPVVEGKVLRHRGGETRVLRPGYVKPKHEFNYQQAVERLPGEDPAQLNGPAYRRLRIITDNLKQEEHAIVQVEEMQAVNAVLYGKYTMEGEQFETVEVDFGRSVGNNITQAGGTEWSAQDRDTFDPTHDLDAYCDFASGTINIAIMDGKVWRLLNGFKLFREKLDTRRGSNSQLETAVKDLGAVVSFKGYYGDLAIVVAKTSYVAEDGTEKRYLPDGTLVLGNTAAEGIRCYGAIQDAQALSEGVVASSRYPKHWLTVGDPAREFTMTQSAPLMVLPDPDEFVVVQVK | not soluble |
